Experimental findings from patent US11098085B2, “Use of a HIV derived accessory protein for the reactivation of latent HIV” (Janssen Sciences Ireland Unlimited Company, priority 2014, dated 2021) are described below.

In assay [1] the test system is HIV LTR. Kind of assay: HIV LTR transactivation by Tat C-terminal deletion mutants (triple plasmid transfection, Dual-Glo luciferase). The assay is classed as cell-based. Conditions: HEK293 cells, 24 h post transfection, full length Tat72 exon-1 set to 100%, mean (standard deviation). On the procedure: Activity is expressed in % with respect to the activity achieved by full length Tat72 exon-1 set to 100%. Shown data are mean values [n 4] with indicated (standard deviation).
Tat-mediated transactivation was determined by triple plasmid transfection of HEK293 cells with pEF-T, a Tat expression plasmid, LTR-FLuc, a HIV LTR-controlled firefly luciferase reporter plasmid and pEF1-RLuc, a EF1α promoter driven Renilla luciferase reporter plasmid. Luciferase reporter activities were assessed 24 h post transfection using the Dual-Glo luciferase assay [Promega]. The measured HIV LTR luciferase data were normalized by Renilla luciferase data retrieved from the pEF1-RLuc plasmid. LTR activity is expressed as percentage of wild type exon-1 Tat72 activity.

The test system of another assay is MT4-LTR-GFP cells. Kind of assay: Titration of tat protein variants on latent HIV LTR-GFP reporter cell line (flow cytometry). The arrangement: unit not given here. Conditions: overnight. In kind it is cell-based. On the procedure:
MT4-LTR-GFP cells were incubated overnight with different Tat variants at the indicated concentration [μg/ml]. LTR activation was determined by flow cytometry.

The subject of another assay is latent HIV. Kind of assay: Ex vivo activation of latent HIV from primary CD4+ T cells of HIV-infected individuals (gag RNA QPCR). Conditions: for % Activity (PHA): PHA set to 100%; for % Activity (PMA): PMA set to 100%. In kind it is cell-based, HIV-1. Here is the method: Activation of latent HIV from primary CD4^+ T cells by overnight incubation with different Tat proteins. Indicated numbers represent HIV activation in percentage to reference compounds PMA and PHA set to 100%. The shown % increase compared to PMA/PHA is statistically significant (p<0.01).
CD4^+ T cells were isolated from 200 ml whole blood using CD4 microbeads (Miltenyi Biotec) according to manufacturer's protocol. Blood originates from HIV-infected individuals under long-term HAART with undetectable plasma virus. Ten to twenty replicates of cell pools plated at 1×10^6 CD4^+ T cells/well were incubated overnight with compounds or mock controls (DMSO/PBS). Total RNA was isolated from each replicate using the Magmax 96 Total RNA isolation kit (Ambion) following the manufacturer's protocol. Duplicate cDNA reactions were performed on each RNA replicate using SuperScript III First-Strand Synthesis kit (Invitrogen) according to the manufacturer's protocol. Quantitative real-time PCR (QPCR) was conducted on each cDNA applying gag-specific primers and the nucleic acid detection dye Sybr Green I [Invitrogen]. Standard curves were generated using cDNA synthesized from in vitro transcribed RNA. The detection limit of the QPCR assay was determined to be within 1-10 copies/reaction. Cycle threshold (ct) values 40 were excluded from the analysis. The Wilcoxon rank sum test was used to calculate the statistical significance of the relative HIV-1 gag RNA copy number between different conditions.

For assay [2], the system named is HIV LTR. Kind of assay: HIV LTR activation by T66 fusion proteins (triple plasmid transfection of HEK293 cells, Dual-Glo luciferase). In kind it is cell-based. Here is the method: Triple plasmid transfection of HEK293 cells with pEF-T (Tat expression plasmid), LTR-FLuc (HIV LTR-controlled firefly luciferase reporter plasmid) and pEF1-RLuc (EF1α promoter driven Renilla luciferase reporter plasmid). Luciferase reporter activities were assessed 24 h post transfection using the Dual-Glo luciferase assay [Promega]. The measured HIV LTR luciferase data were normalized by Renilla luciferase data collected from the co-transfected pEF1-RLuc signal. LTR activation is either expressed as fold increase over cell control or as percentage of T66 activity.

Regarding “1-57: first 57 N-terminal amino acids of wild-type tat, SEQ ID No 1; minimal reactivation domain (MEPVDPRLEPWKHPGSQPKTACTNCYCKKCCFHCQVCFMTKALGISYGRKKRRQRRR; Human immunodeficiency virus 1) [Tat 1-57]”, the “% Tat72 activity” value with HIV LTR [1] is 40.2 (±2.3) %.

Take “T60: first 60 N-terminal amino acids of wild-type tat, SEQ ID No 2 (MEPVDPRLEPWKHPGSQPKTACTNCYCKKCCFHCQVCFMTKALGISYGRKKRRQRRRAHQ; Human immunodeficiency virus 1) [Tat T60]”: in the assay on HIV LTR [1], the “% Tat72 activity” value is on record as 77.2 (±10.8) %. Besides, the LTR activation with MT4-LTR-GFP cells (Tat 30 μg/ml) is 28.5; in the assay with MT4-LTR-GFP cells (Tat 40 μg/ml) it was 33.4; in the assay with MT4-LTR-GFP cells (Tat 50 μg/ml), 87.0; in the assay with MT4-LTR-GFP cells (Tat 60 μg/ml), 92.1; in the assay on MT4-LTR-GFP cells (Tat 70 μg/ml) it was 95.2; in the assay on MT4-LTR-GFP cells (Tat 80 μg/ml) it was 95.8. This molecule also gave an LTR activation with MT4-LTR-GFP cells (Tat 100 μg/ml) of 93.3. Moreover, the “% Activity (PHA)” value with latent HIV (Donor 1, overnight incubation) is recorded as 328%; in the assay with latent HIV (Donor 3, overnight incubation), 196%; in the assay with latent HIV (Donor 5, overnight incubation) it was “ND/254%”. Also, the “% Activity (PMA)” value in the assay with latent HIV (Donor 1, overnight incubation) was 405%; in the assay with latent HIV (Donor 3, overnight incubation) it was 213%.

B1: T72: full length exon 1 Tat [1-72 aa], contains all domains essential for trans-activation (protein, UniProt P04608 1-72, looked up, fragment)
chain: MEPVDPRLEPWKHPGSQPKTACTNCYCKKCCFHCQVCFITKALGISYGRKKRRQRRRAHQNSQTHQASLSKQ
Turning to B1, the LTR activation in the assay on MT4-LTR-GFP cells (Tat 30 μg/ml) came out at 18.6; in the assay on MT4-LTR-GFP cells (Tat 40 μg/ml), 47.2; in the assay on MT4-LTR-GFP cells (Tat 50 μg/ml), 60.4; in the assay with MT4-LTR-GFP cells (Tat 60 μg/ml) it was 76.3; in the assay on MT4-LTR-GFP cells (Tat 70 μg/ml), 88.8; in the assay with MT4-LTR-GFP cells (Tat 80 μg/ml), 93.8. The same molecule returned an LTR activation in the assay with MT4-LTR-GFP cells (Tat 100 μg/ml) of 93.7.

B2: T66 (protein)
chain: MEPVDPRLEPWKHPGSQPKTACTNCYCKKCCFHCQVCFMTKALGISYGRKKRRQRRRAHQNSQTHQ
modifications: Human immunodeficiency virus 1
On to B2, for which, in the assay with HIV LTR [1], the “% Tat72 activity” value was 92.2 (±12.7) %. Also, the LTR activation in the assay with MT4-LTR-GFP cells (Tat 30 μg/ml) is listed as 45.7; in the assay on MT4-LTR-GFP cells (Tat 40 μg/ml), 53.8; in the assay on MT4-LTR-GFP cells (Tat 50 μg/ml), 87.0; with MT4-LTR-GFP cells (Tat 60 μg/ml) it was 88.7; in the assay on MT4-LTR-GFP cells (Tat 70 μg/ml), 87.6; in the assay on MT4-LTR-GFP cells (Tat 80 μg/ml), 93.9. In the assay with MT4-LTR-GFP cells (Tat 100 μg/ml), this molecule returned an LTR activation of 94.5. Moreover, the “% Activity (PHA)” value with latent HIV (Donor 1, overnight incubation) is reported as 680%; in the assay with latent HIV (Donor 2, overnight incubation), 986%; in the assay on latent HIV (Donor 3, overnight incubation), 487%; in the assay on latent HIV (Donor 4, overnight incubation) it was “ND/479%”; in the assay with latent HIV (Donor 5, overnight incubation) it was “ND/636%”. Besides, the “% Activity (PMA)” value stood at 838% in the assay with latent HIV (Donor 1, overnight incubation) and 530% in the assay with latent HIV (Donor 3, overnight incubation). In addition, the “HIV activation ex vivo compared with reference compounds” value in the assay with latent HIV (patient-derived latently infected CD4 cells, versus PHA, PMA and SAHA) is on record as “exceeded by far the reactivation achieved by reference compounds”. The molecule further displayed an RLUC in the assay with HIV LTR [2] (EF1α promoter driven Renilla luciferase (normalisation signal), HEK293, 24 h post transfection) of 267. In the assay with HIV LTR [2] (HIV LTR-controlled firefly luciferase, HEK293, 24 h post transfection), this molecule had an FLUC of 15437. The same molecule returned an FLUCnorm in the assay with HIV LTR [2] (firefly luciferase normalized by Renilla luciferase) of 37049. Moreover, in the assay with HIV LTR [2] (fold increase over cell control), the Fold was found to be 26. Besides, the “% T66” value in the assay on HIV LTR [2] (percentage of T66 activity) is reported as 100%.

B3: T86: Tat protein T86; full length tat protein is 86-101 aa (protein, UniProt P04608 1-86, looked up)
Protein Tat: MEPVDPRLEPWKHPGSQPKTACTNCYCKKCCFHCQVCFITKALGISYGRKKRRQRRRAHQNSQTHQASLSKQPTSQPRGDPTGPKE
On to B3, for which the “% Activity (PHA)” value in the assay with latent HIV (Donor 4, overnight incubation) is reported as “ND/436%”; with latent HIV (Donor 5, overnight incubation), “ND/408%”.
